Results reported in US5770691A, “Discriminatory substrates for MMP hydrolysis” (Regents of the University of Minnesota, priority 1995, dated 1998).

B1: MMP-1 (Homo sapiens) (protein)
chain: FVLTEGNPRWEQTHLTYRIENYTPDLPRADVDHAIEKAFQLWSNVTPLTFTKVSEGQADIMISFVRGDHRDNSPFDGPGGNLAHAFQPGPGIGGDAHFDEDERWTNNFREYNLHRVAAHELGHSLGLSHSTDIGALMYPSYTFSGDVQLAQDDIDGIQAIYGRSQNPVQPIGPQTPKACDSKLTFDAITTIRGEVMFFKDRFYMRTNPFYPEVELNFISVFWPQLPNGLEAAYEFADRDEVRFFKGNKYWAVQGQNVLHGYPKDIYSSFGFPRTVKHIDAALSEENTGKTYFFVANKYWRYDEYKRSMDPGYPKMIAHDFPGIGHKVDAVFMKDGFFYFFHGTRQYKFDPKTKRILTLQKANSWFNCRKN
notes: made in house; host or cells: native secreted protein purified from culture medium of human rheumatoid synovial cells
B2: MMP-2 (Homo sapiens) (protein)
chain: YNFFPRKPKWDKNQITYRIIGYTPDLDPETVDDAFARAFQVWSDVTPLRFSRIHDGEADIMINFGRWEHGDGYPFDGKDGLLAHAFAPGTGVGGDSHFDDDELWTLGEGQVVRVKYGNADGEYCKFPFLFNGKEYNSCTDTGRSDGFLWCSTTYNFEKDGKYGFCPHEALFTMGGNAEGQPCKFPFRFQGTSYDSCTTEGRTDGYRWCGTTEDYDRDKKYGFCPETAMSTVGGNSEGAPCVFPFTFLGNKYESCTSAGRSDGKMWCATTANYDDDRKWGFCPDQGYSLFLVAAHEFGHAMGLEHSQDPGALMAPIYTYTKNFRLSQDDIKGIQELYGASPDIDLGTGPTPTLGPVTPEICKQDIVFDGIAQIRGEIFFFKDRFIWRTVTPRDKPMGPLLVATFWPELPEKIDAVYEAPQEEKAVFFAGNEYWIYSASTLERGYPKPLTSLGLPPDVQRVDAAFNWSKNKKTYIFAGDKFWRYNEVKKKMDPGFPKLIADAWNAIPDNLDAVVDLQGGGHSYFFKGAYYLKLENQSLKSVKFGSIKSDWLGC
notes: as for B1

How the values were obtained:
Format in all cases: biochemical, human
[1] = substrate: CCC[C@H](NC(=O)[C@H](C)NC(=O)[C@H](Cc1ccc(O)cc1)NC(=O)[C@@H]1CCCN1C(=O)[C@H](CCCCN)NC(=O)[C@@H]1CCCN1C(=O)[C@H](CCCNC(=N)N)NC(=O)Cc1cc(=O)oc2cc(OC)ccc12)C(=O)N[C@@H](Cc1c[nH]c2ccccc12)C(=O)N[C@@H](CCSC)C(=O)N[C@@H](CCCCNc1ccc([N+](=O)[O-])cc1[N+](=O)[O-])C(N)=O; experiment: Fluorometric hydrolysis of synthetic Mca/Lys(Dnp) substrates by MMP-1; conditions: other: MMP-1, 37° C., pH 7.5
Excerpt: (§1) All MMPs were purified in zymogen form. ProMMP-1 (Suzuki et al., Biochem., 29, 10261 (1990)), proMMP-2 (Okada et al., Eur. J. Biochem., 194, 721 (1990)), and proMMP-3 (Ito et al., Arch. Biochem. Biophys., 267, 211 (1988)) were purified from the culture medium of human rheumatoid synovial cells stimulated with rabbit macrophage-conditioned medium. ProMMP-9 was purified from the culture medium of HT-1080 cells as described in Morodomi et al., Biochem. J., 285, 603 (1992). ProMMP-2 and proMMP-9 were activated by reacting with 1 mM 4-aminophenylmercuric acetate at 37° C. for 45 minutes and 32 hours, respectively. ProMMP-1 was activated by reacting with 1 mM 4-aminophenylmercuric acetate and an equimolar amount of MMP-3 at 37° C. for 6 hours. After activation, MMP-3 was completely removed from MMP-1 by affinity chromatography using an anti-MMP-3 IgG Affi-Gel 10 column. The resin, Affi-Gel 10 (Biorad, Emoryville, Calif.), was coupled to anti-MMP-3 IgG (Okada et al., Annals of Rheumat. Dis., 48, 645 (1989)) per the manufacturer's protocol. Pro-MMP-3 was activated by reacting with 5 μg/mL chymotrypsin at 37° C. for 2 hours. Chymotrypsin was inactivated with 2 mM diisopropylfluorophosphate. The amounts of active MMP-1, MMP-2, and MMP-3 were determined by titration with tissue inhibitor of metalloproteinase-1(TIMP1) over a concentration range of 0.1-3 μg/mL, while the amount of active MMP-9 was determined by titration with TIMP-2 (0.1-3 μg/mL). TIMP-1 was isolated from the medium of HT-1080 cells as described in Morodomi et al., Biochem J., 285, 603 (1992).
(§2) Substrates were prepared as 10 mM stock solutions in dimethylsulfoxide (DMSO). Fluorescent assays were performed at λex =325 nm and λem =393 nm, which should encounter no interference from Trp residues, using a Hitachi fluorescence spectrophotometer F-3010. Initial total hydrolysis assays were run at a substrate concentration of […] to avoid filtering effects. The change in fluorescence at this concentration was 110 based on total hydrolysis of 1 μM substrate. A typical assay was carried out by incubating 100 μL of various concentrations of a substrate with 10 μL of an enzyme solution (2-20 nM) in 50 mM Tris-HCl, pH 7.5, 0.15M NaCl, 10 mM CaCl2, 0.05% Brij 35, 0.02% NaN3. The reaction was stopped by addition of 900 μl of 3% (v/v) glacial acetic acid. MMP-3 activity at pH 6.0 was measured in 50 mM sodium acetate buffer, pH 6.0, instead of Tris-HCl buffer. The amount of substrate hydrolysis was calculated based on the fluorescence values of the Mca-Arg-Pro-Lys-Pro-Gln standard solution after substraction of the reaction blank value (stopping solution added before the enzyme). Individual kinetic parameters (kcat and KM) were determined over a substrate concentration range of 2.5-75 μM and calculated by double reciprocal plots.

[2] = substrate: COc1ccc2c(CC(=O)N3CCC[C@H]3C(=O)N[C@@H](CCCCN)C(=O)N3CCC[C@H]3C(=O)N[C@@H](CCC(N)=O)C(=O)N[C@@H](CCC(N)=O)C(=O)N[C@@H](Cc3ccccc3)C(=O)N[C@@H](Cc3ccccc3)C(=O)NCC(=O)N[C@@H](CC(C)C)C(=O)N[C@@H](CCCCNc3ccc([N+](=O)[O-])cc3[N+](=O)[O-])C(=O)NCC(=O)O)cc(=O)oc2c1; experiment: as above; conditions: other: MMP-1, 37° C., pH 7.5
Excerpt: as §1, §2

[3] = substrate: CCC[C@H](NC(=O)[C@H](C)NC(=O)[C@H](Cc1ccc(O)cc1)NC(=O)[C@@H]1CCCN1C(=O)[C@H](CCCCN)NC(=O)[C@@H]1CCCN1C(=O)[C@H](CCCNC(=N)N)NC(=O)Cc1cc(=O)oc2cc(OC)ccc12)C(=O)N[C@@H](Cc1c[nH]c2ccccc12)C(=O)N[C@@H](CCSC)C(=O)N[C@@H](CCCCNc1ccc([N+](=O)[O-])cc1[N+](=O)[O-])C(N)=O; experiment: Fluorometric hydrolysis of synthetic Mca/Lys(Dnp) substrates by MMP-2; conditions: other: MMP-2, 37° C., pH 7.5
Excerpt: as §1, §2

[4] = substrate: COc1ccc2c(CC(=O)N3CCC[C@H]3C(=O)N[C@@H](CCCCN)C(=O)N3CCC[C@H]3C(=O)N[C@@H](CCC(N)=O)C(=O)N[C@@H](CCC(N)=O)C(=O)N[C@@H](Cc3ccccc3)C(=O)N[C@@H](Cc3ccccc3)C(=O)NCC(=O)N[C@@H](CC(C)C)C(=O)N[C@@H](CCCCNc3ccc([N+](=O)[O-])cc3[N+](=O)[O-])C(=O)NCC(=O)O)cc(=O)oc2c1; experiment: as above; conditions: other: MMP-2, 37° C., pH 7.5
Excerpt: as §1, §2

Protein	Km [1]	kcat [1]	kcat/Km [1]	Km [2]	kcat [2]	kcat/Km [2]	Km [3]	kcat [3]	kcat/Km [3]	Km [4]	kcat [4]	kcat/Km [4]
B1	142 µM	0.15 S^-1	1,060 S^-1 M^-1	16.6 µM	0.04 S^-1	2,510 S^-1 M^-1	–	–	–	–	–	–
B2	–	–	–	–	–	–	50 µM	2.70 S^-1	54,000 S^-1 M^-1	100 µM	1.07 S^-1	10,800 S^-1 M^-1
